The values that follow come from publication PMC3437384.

Assay [1] concerns the target cardiac troponin I (cTnI), rat wild type (rat) (UniProt P23693). Put plainly: ITC. (ITC needs no label: the signal is the heat of the interaction.)
The target of assay [2] is N-domain of cardiac troponin C with the L48Q mutation, cNTnC(L48Q) (UniProt P63316). Briefly: NMR titration.
Assay [3] addresses cTnI switch peptide 147-163 (Homo sapiens) (UniProt P19429). Briefly: NMR. As to conditions: cited from earlier work.

Chain of cardiac troponin I (cTnI), rat wild type (rat) (P23693 whole entry): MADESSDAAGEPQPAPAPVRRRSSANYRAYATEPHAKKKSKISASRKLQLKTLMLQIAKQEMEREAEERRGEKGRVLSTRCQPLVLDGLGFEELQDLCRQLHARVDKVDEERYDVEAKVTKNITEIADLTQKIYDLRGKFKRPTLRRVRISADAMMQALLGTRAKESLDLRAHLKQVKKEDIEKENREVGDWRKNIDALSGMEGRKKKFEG

On to “cardiac troponin C L48Q variant, cTnC(L48Q) (from UniProt Q4PP99 1-161) (natural protein)”, for which, in assay [1], the Kd amounted to 0.132 µM and the dH is -5.28 kcal/mol. In assay [2], “cTnI peptide corresponding to residues 147-163, cTnI_(147-163) switch peptide” had a Kd of 61 µM. In the case of “cNTnC N-terminal domain (from UniProt P63316)”, the Kd in assay [3] was 150 µM.

For orientation: Kd means the equilibrium constant for the complex coming apart.
